Assay [1] deals with T1, T-cell receptor with TRBV19 (Vβ17) beta chain on human T cells (human). In words: cell-based or functional assay.
The target in the next assay is T2, FcRn (human) (human, UniProt P55899 24-297; P61769 21-119).
T2 construct: also called neonatal Fc receptor
In words: FcRn binding (human, pH 6).

Assay [2] deals with T3, EMR2W4, huEMR2 GAIN domain + GPS, D261-T540, with C-terminal Avi/6x His tag (human).
T3 construct: also called Human EMR2 GAIN domain protein
T3 chain: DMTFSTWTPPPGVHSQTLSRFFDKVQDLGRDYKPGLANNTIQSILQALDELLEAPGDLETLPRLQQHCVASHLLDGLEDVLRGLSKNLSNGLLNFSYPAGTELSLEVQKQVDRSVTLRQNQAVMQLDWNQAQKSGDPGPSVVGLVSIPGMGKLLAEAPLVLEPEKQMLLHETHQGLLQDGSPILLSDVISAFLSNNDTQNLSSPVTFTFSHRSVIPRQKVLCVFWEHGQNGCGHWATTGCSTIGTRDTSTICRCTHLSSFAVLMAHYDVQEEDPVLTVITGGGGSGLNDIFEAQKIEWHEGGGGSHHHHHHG
Description: SPR protein binding (human), binding to EMR2W4.

Assay [3] addresses T3, EMR2W4, huEMR2 GAIN domain + GPS, …. In words: SPR, EMR2 arm, forced degradation study: Release. In general terms: SPR reads the build-up and loss of mass on a sensor chip optically.
Assay [4] shares this target. Description: SPR, EMR2 arm, forced degradation study: Physiological.
The target in assay [5] is T4, human EMR2 (ADGRE2, CD312) on cells (human, UniProt Q9UHX3 24-823).
T4 construct: also called huEMR2 full length; Adhesion G protein-coupled receptor E2
T4 sequence: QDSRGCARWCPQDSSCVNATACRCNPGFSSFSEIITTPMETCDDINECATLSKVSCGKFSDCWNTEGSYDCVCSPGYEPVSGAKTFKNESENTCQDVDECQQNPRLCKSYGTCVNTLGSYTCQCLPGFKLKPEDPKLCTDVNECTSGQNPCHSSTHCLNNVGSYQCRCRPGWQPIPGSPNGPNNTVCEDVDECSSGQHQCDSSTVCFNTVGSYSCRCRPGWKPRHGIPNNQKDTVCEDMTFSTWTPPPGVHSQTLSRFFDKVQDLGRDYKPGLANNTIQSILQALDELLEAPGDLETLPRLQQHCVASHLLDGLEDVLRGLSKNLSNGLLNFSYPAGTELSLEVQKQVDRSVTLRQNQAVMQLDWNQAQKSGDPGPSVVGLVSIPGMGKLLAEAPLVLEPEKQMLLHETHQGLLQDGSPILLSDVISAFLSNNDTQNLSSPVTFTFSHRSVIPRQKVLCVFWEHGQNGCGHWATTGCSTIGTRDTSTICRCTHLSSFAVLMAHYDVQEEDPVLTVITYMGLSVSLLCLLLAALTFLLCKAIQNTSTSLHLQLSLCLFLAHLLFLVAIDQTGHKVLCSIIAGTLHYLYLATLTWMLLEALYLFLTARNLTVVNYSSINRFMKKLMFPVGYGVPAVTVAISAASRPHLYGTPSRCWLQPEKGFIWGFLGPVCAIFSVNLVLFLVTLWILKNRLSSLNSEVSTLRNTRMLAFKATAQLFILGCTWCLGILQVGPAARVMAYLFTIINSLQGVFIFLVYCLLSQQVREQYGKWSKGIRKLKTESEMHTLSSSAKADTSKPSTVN
In words: flow cytometry, MOLM-13 cells, 1 hour at 37 °C; mean ± SEM. (Flow cytometry measures light scatter and fluorescence of single cells or particles in a stream.)
Description: (§1) After secondary detection with AF647-labeled material, the MFI signal was analyzed to generate an EC50 value. Curves are representative of 3 independent experiments.

For assay [6], the target named is T4, human EMR2 (ADGRE2, CD312) on cells. Description: flow cytometry, OCI-AML3 cells, 1 hour at 37 °C; mean ± SEM.
Description: as §1
The target of assay [7] is T1, T-cell receptor with TRBV19 (Vβ17) beta …. In words: flow cytometry, percent TRBV19+ of live pan-T cells, Donor 4, 1 hour, 37 °C.
Assay [8] has the same target. Description: flow cytometry, percent TRBV19+ of live pan-T cells, Donor 6, 1 hour, 37 °C.
Assay [9] has the same target. In words: flow cytometry, % TRBV19+ T cells of live human pan-T cells, 1 hour at 37 C.

Here are results for 1 molecule from patent US20250361317A1 (Janssen / Centocor, published 2025).

T1 sequence (A0A075B6N1 22-114): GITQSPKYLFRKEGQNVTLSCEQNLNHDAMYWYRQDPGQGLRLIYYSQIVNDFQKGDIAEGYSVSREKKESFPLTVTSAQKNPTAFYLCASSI
T2 sequence (P55899 24-297 limits assumed, chain 1 of 2): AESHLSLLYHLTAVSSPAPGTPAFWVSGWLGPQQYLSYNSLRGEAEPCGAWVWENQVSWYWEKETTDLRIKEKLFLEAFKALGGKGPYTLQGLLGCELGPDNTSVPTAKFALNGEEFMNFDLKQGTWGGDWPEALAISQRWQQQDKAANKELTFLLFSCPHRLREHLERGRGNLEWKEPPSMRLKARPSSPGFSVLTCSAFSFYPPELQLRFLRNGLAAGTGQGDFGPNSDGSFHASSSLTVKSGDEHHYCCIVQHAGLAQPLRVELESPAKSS
T2 sequence (P61769 21-119 limits assumed, chain 2 of 2): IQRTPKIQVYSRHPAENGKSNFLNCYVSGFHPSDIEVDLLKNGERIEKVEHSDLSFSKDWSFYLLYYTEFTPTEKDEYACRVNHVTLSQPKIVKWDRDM

B1: EMVBB8 (EMR2 x TRBV19 bispecific antibody) (bispecific antibody, human IgG1, kappa, L234A L235A)
heavy 1: DIQMTQSPSSLSASVGDRVTITCRSSQSLVHSNRNTYLHWYQQKPGCAPKLLIYKVSNRFSGVPSRFSGSGSGTDFTLTISSLQPEDFATYYCSQSTHVPFTFGQGTKLEIKGGGSGGSGGCPPCGGSGGQVQLQESGPGLVKPSETLSLTCTVSGYSITSGYFWNWIRQFPGKGLEWMGYISYDGSNNYNPSLKSRITISRDTSKNQFSLKLSSVTAADTAVYYCASPSPGTGYAVDYWGCGTTVTVSSEPKSSDKTHTCPPCPAPEAAGGPSVFLFPPKPKDTLMISRTPEVTCVVVSVSHEDPEVKFNWYVDGVEVHNAKTKPREEQYNSTYRVVSVLTVLHQDWLNGKEYKCKVSNKALPAPIEKTISKAKGQPREPQVYTLPPSREEMTKNQVSLWCLVKGFYPSDIAVEWESNGQPENNYKTTPPVLDSDGSFFLYSKLTVDKSRWQQGNVFSCSVMHEALHNHYTQKSLSLSPGK
heavy 2: EVQLVESGGGLVQPGGSLRLSCTASGFTFSRYSMNWVRQAPGEGLEWVSYISSSSNTIYYADSVKGRFTISRDNAKNSLYLQMNSLRDEDTAVYYCARDQGTPFDYWGQGTLVTVSSASTKGPSVFPLAPSSKSTSGGTAALGCLVKDYFPEPVTVSWNSGALTSGVHTFPAVLQSSGLYSLSSVVTVPSSSLGTQTYICNVNHKPSNTKVDKKVEPKSCDKTHTCPPCPAPEAAGGPSVFLFPPKPKDTLMISRTPEVTCVVVSVSHEDPEVKFNWYVDGVEVHNAKTKPREEQYNSTYRVVSVLTVLHQDWLNGKEYKCKVSNKALPAPIEKTISKAKGQPREPQVYTLPPSREEMTKNQVSLSCAVKGFYPSDIAVEWESNGQPENNYKTTPPVLDSDGSFFLVSKLTVDKSRWQQGNVFSCSVMHEALHNRFTQKSLSLSPGK
light: EIVLTQSPSSVSASIGDRVTITCRASQDISSWLGWYQQKPGKAPKLLIYAAISLQSGVPSRFSGSESGTDFTLTISSLQPEDFATYYCHQANSFPLTFGGGTKVEIKRTVAAPSVFIFPPSDEQLKSGTASVVCLLNNFYPREAKVQWKVDNALQSGNSQESVTEQDSKDSTYSLSSTLTLSKADYEKHKVYACEVTHQGLSSPVTKSFNRGEC
notes: also called the bispecific antibody
In the case of B1, the “Pan-T-cell activation (CD25), EC50 (nM), 24 hours, PBMC + OCI-AML3” value in assay [1] came out at 0.02 nM. For the same molecule, the “Pan-T-cell activation (CD25), EC50 (nM), 48 hours, PBMC + OCI-AML3” value in assay [1] worked out at 0.01 nM. Besides, in assay [1], the “Pan-T-cell activation (CD25), EC50 (nM), 72 hours, PBMC + OCI-AML3” value amounted to 0.01 nM. Further, the “Pan-T-cell activation (CD25), EC50 (nM), 96 hours, PBMC + OCI-AML3” value in [1] is 0.01 nM. In addition, the “Pan-T-cell activation (CD25), EC50 (nM), 120 hours, PBMC + OCI-AML3” value in assay [1] came to 0.01 nM. The Kd – broadly, the free concentration of one partner at which half of the binding sites on the other are occupied at equilibrium, for simple one-to-one binding – with FcRn (human) came to 306 nM; in [2], 0.193 nM; in [3] it was 0.19 nM; in assay [4], 0.21 nM. Moreover, the EC50 – broadly, the concentration at which the effect is half-maximal – in assay [5] is 53 nM; in assay [6], 48 nM; in [7], 10.6 nM; in assay [8] it was 4.9 nM; in assay [9], 13.1 nM. Moreover, the “Max % TRV19+” value in [9] came out at 7.72%.
